Here are results for 1 molecule from US20170258870A1 (NORTHWESTERN UNIVERSITY, published 2017).

The star is where a group is joined. Biotin = O=C1N[C@H]2[C@H](CS[C@H]2CCCCC(=O)*)N1; Ttds = NCCCOCCOCCOCCCNC(=O)CCC(=O)*

The target of test [1] is T1, recombinant human α-mannosidase (LAMAN) (human, UniProt O00754 50-1011, limits assumed).
T1 sequence (looked up): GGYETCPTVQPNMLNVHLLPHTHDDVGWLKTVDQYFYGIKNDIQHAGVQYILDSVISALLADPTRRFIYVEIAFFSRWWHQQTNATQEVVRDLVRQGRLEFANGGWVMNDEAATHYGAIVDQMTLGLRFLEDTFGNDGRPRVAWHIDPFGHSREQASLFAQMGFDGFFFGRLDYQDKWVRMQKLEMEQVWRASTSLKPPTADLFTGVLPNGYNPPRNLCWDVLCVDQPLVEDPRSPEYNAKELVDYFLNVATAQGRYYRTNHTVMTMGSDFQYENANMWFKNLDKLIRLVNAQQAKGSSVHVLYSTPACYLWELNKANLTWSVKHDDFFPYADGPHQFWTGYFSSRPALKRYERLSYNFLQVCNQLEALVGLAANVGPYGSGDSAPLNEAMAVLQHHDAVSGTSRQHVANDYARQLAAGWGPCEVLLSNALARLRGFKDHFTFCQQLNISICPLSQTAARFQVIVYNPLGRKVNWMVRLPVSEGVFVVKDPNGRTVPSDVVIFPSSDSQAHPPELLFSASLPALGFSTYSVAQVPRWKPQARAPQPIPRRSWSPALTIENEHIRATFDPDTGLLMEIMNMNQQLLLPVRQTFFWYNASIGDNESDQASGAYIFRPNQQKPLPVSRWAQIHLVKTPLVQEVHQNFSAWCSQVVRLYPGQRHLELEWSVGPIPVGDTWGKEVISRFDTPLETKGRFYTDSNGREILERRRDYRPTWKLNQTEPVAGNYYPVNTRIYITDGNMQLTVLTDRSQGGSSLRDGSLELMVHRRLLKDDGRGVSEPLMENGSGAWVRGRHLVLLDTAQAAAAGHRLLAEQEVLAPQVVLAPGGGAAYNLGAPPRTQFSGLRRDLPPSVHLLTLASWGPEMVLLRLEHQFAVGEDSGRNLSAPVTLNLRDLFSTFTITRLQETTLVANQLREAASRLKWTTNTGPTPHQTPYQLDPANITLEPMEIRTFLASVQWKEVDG
Description: pulldown with biotinylated peptide on streptavidin beads, neutral pH, coomassie.
Description: (§1) The total incubation volume was 250 μl (50 mM NaPhosphate buffer, 150 mM NaCl, pH7). ‘High Capacity Streptavidin Beads’ (Thermo Fisher Scientific, Waltham, USA) were blocked with 1% BSA solution and equilibrated with the NaPhosphate buffer. For each pulldown 50 μl of beads were utilized and incubated with 200 μl enzyme/peptide mixture for 30 min. at room temperature. The remaining 50 μl of the enzyme/peptide samples were prepared for SDS-PAGE (INPUT fraction). After incubation of the beads with the enzyme/peptide mixture the samples were centrifuged for 1 min. at 1,500×g at 4° C. The supernatant was removed and stored at 4° C. (UNBOUND fraction). Subsequently, the beads were washed three times with NaPhosphate buffer followed by centrifugation at 4,000 rpm at room temperature. […] After destaining the gels were scanned.

The target in test [2] is bovine serum albumin (BSA) (bovine, UniProt P02769 25-607). The test is described as above.
Chain of bovine serum albumin (BSA) (P02769 25-607 limits assumed): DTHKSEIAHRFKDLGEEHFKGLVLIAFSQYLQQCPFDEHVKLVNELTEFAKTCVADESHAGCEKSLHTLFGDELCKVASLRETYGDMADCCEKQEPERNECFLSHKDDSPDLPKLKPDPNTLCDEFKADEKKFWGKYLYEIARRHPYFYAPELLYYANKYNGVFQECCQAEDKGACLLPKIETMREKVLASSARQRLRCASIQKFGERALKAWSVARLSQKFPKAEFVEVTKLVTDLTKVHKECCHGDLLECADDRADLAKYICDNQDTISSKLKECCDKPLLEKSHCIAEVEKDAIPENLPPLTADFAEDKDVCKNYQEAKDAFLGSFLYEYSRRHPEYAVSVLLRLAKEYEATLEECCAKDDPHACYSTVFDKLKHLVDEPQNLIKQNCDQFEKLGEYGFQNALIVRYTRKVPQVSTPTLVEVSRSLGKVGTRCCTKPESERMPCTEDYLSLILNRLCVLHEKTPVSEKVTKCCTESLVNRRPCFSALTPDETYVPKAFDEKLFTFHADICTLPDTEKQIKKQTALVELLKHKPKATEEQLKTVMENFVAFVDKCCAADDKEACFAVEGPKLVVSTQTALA
Description: as §1

B1: Helix 5 peptide (LIMP-2-derived, L152-E175) (peptide)
peptide: {Biotin-Ttds}-LREIIEAMLKAYQQKLFVTHTVDE-OH
notes: Synthetic peptide from jpt Peptide Technologies; also called wild-type helix 5 peptide; LIMP-2-derived helix 5 peptide
On to B1, for which the binding result in test [1] and in test [2] was “no binding” each time.
